Here are results for seven molecules from US20240376207A1 (JIANGSU HENGRUI PHARMACEUTICALS, published 2024).

For assay [1], the target named is T1, his-tagged human PVRIG (h-PVRIG-his) recombinant protein (human, UniProt Q6DKI7 41-171, limits assumed).
T1 construct: bought from Acrobiosystems; also called Human PVRIG-his; human PVRIG recombinant protein; not shown: his tag
T1 sequence (looked up): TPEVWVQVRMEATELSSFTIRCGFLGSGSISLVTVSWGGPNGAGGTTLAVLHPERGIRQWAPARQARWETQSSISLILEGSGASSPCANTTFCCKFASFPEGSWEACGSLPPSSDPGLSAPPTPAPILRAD
Put plainly: BLI (Fortebio), antibody on Protein A sensor, 1:1 fit. The procedure: A Protein A biosensor (Fortebio, #18-5010) was immersed in 200 μL of KB buffer (PBS, pH 7.4, 0.02% tween-20, 0.1% BSA) for 60 s for the wetting treatment. Then, the anti-PVRIG antibody was diluted to 10 μg/mL with the KB buffer, and the sensor was immersed in 200 μL of the solution until the reading was 1.2 nm. The sensor was immersed in the KB buffer for 100 s to elute excess antibody. The his-tagged human PVRIG was diluted in a 2-fold gradient to 64 nM-4 nM with the KB buffer. The sensor was immersed in the solution for 300 s for binding. The sensor was immersed in the KB buffer for 600 s for dissociation. The data were fitted in a dynamic 1:1 binding mode.

The target of assay [2] is T2, human PVRIG expressed on cells (human, UniProt Q6DKI7 41-326).
T2 sequence (looked up): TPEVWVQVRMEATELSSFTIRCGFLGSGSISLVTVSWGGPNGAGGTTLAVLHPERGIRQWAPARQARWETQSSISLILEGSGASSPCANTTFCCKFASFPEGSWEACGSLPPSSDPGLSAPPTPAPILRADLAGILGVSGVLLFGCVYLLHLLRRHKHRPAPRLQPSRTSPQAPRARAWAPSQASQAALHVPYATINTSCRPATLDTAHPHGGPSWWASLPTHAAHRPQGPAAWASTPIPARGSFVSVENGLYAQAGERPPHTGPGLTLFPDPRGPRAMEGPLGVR
Put plainly: cell-based or functional assay.

The target of assay [3] is T3, cynomolgus monkey TIGIT expressed on cells (cynomolgus monkey, UniProt A0A7N9I9V4 89-312).
T3 construct: whole, on cells; also called cells overexpressing cynomolgus monkey TIGIT
T3 sequence (A0A7N9I9V4 entry or part of it): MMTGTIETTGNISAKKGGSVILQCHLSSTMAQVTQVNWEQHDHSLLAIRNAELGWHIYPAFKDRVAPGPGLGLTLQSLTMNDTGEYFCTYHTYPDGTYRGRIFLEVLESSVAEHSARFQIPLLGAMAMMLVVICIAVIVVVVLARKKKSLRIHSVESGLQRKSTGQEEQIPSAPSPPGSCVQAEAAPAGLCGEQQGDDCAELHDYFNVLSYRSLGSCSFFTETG
Description: FACS, cells overexpressing target. Here is the method: (§1) The expression plasmid carrying human or cynomolgus monkey PVRIG gene sequence was transfected into HEK293 cells, and the over-expressing stable transfection monoclonal cell strain was obtained by antibiotic screening and infinite dilution. Overexpressing cells were seeded into a 96-well plate at 2×10⁵ cells/per well. The cells were centrifuged at 300 g for 5 min, the supernatant was then removed, 100 μL of the test antibody was added, and the mixture was incubated at 4° C. for 1 h. The mixture was centrifuged, the supernatant was removed, the plate was washed 3 times with 200 μL of wash buffer (PBS+2% FBS), and then 100 μL of an anti-human IgG secondary antibody (Invitrogen, A-11013) labeled with Alexa Fluor 488 diluted at 1:500 was added. The mixture was incubated at 4° C. for 1 h. The plate was centrifuged, and the supernatant was removed. The plate was washed 3 times with 200 μL of wash buffer (PBS+2% FBS). The cells were resuspended in 100 μL of PBS and tested on a flow cytometer (BD FACS Calibur or BD FACS Canto_II).
(§2) Similarly to Examples 4, 5 and 6, the binding of humanized anti-PVRIG/TIGIT bispecific antibodies to human and cynomolgus monkey TIGIT and blocking of binding of human TIGIT to ligand were detected, where PVRIG protein was replaced with TIGIT and PVRL2 was replaced with PVR.

For assay [4], the target named is T4, human TIGIT expressed on cells (human, UniProt Q495A1 22-244).
T4 construct: whole, on cells; also called cells overexpressing human TIGIT
T4 sequence (looked up): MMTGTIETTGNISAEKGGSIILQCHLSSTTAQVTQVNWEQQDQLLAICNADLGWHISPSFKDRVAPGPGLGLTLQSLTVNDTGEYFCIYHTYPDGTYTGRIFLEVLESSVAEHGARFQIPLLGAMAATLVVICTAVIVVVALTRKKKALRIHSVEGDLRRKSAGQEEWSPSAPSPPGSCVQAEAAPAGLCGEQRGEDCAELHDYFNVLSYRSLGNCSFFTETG
Put plainly: FACS, cells overexpressing target. The procedure: as §1, §2

In assay [5] the target is T5, his-tagged cynomolgus monkey PVRIG (cyno-PVRIG-his) recombinant protein (cynomolgus monkey).
T5 construct: expressed in HEK293, purified by Ni-NTA; also called Monkey PVRIG-his; cynomolgus monkey PVRIG recombinant protein
T5 chain: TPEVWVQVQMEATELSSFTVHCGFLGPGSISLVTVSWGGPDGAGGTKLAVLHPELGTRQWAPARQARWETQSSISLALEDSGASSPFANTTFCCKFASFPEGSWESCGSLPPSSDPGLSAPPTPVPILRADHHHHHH
Description: ELISA, coated antigen. The procedure:
(§3) A human, cynomolgus monkey, or mouse PVRIG protein (at a concentration of 1 μg/mL) was coated on a 96-well microplate at 100 μL per well, and incubated overnight at 4° C. The plate was washed three times with wash buffer at 250 μL per well. For each wash, the plate was shaken for 10 s to ensure adequate cleaning. A blocking solution (PBS+0.05% Tween20+1% BSA) was added at 300 μL/well, and the plate was incubated at room temperature for 1 h. The plate was washed three times with wash buffer at 250 μL per well. For each wash, the plate was shaken for 10 s to ensure adequate cleaning. Dilutions of the test anti-PVRIG antibodies were added at 100 μL/well. The plate was incubated at 37° C. for 1 h. The plate was washed three times with wash buffer at 250 μL per well. The […] anti-human IgG secondary antibody (Sigma, A8667) was added at 100 μL per well. The plate was incubated at 37° C. for 1 h. The plate was washed three times with wash buffer at 250 μL per well. TMB was added at 100 μL/well, and the plate was incubated in the dark for 15 min. 0.16 M sulfuric acid was added at 50 μL/well. The OD values at 450 nm were read by using a Thermo MultiSkanFc microplate reader, and the EC₅₀ values of the binding of the anti-PVRIG antibodies to PVRIG were calculated.
(§4) Binding of the humanized anti-PVRIG/TIGIT bispecific antibodies to human and cynomolgus monkey PVRIG and their blocking of the ligand of human PVRIG were detected according to the methods of Examples 4, 5 and 6.

In assay [6] the target is T1, his-tagged human PVRIG (h-PVRIG-his) …. Put plainly: ELISA, coated antigen. Here is the method:
as §3, §4

B1: anti-PVRIG antibody 151 (antibody, human IgG4 S228P, F234A L235A, V domains shown)
VH: HVQLVESGGGSVQAGGSLRLSCVASASGFTYRPYCMAWFRQAPGKEREAVAGIDIFGGTTYADSVKGRFTASRDNAGFSLFLQMNDLKPEDTAMYYCAAGDSPDGRCPPLGQGLNYWGQGTQVTVSS
notes: no light chain
In the case of B1, in assay [1], the Kd turned out to be 0.2 nM, the koff was determined as 5.22e-05 s⁻¹ and the kon came out at 261000 M⁻¹ s⁻¹. Besides, the “PVRIG reporter gene cell activity EC50” value in assay [2] stood at 0.04 nM.

B2: anti-PVRIG antibody 30 (antibody, human IgG4 S228P, F234A L235A, V domains shown)
VH: HVQLVESGGGSVQAGGSLRLSCEASGYSYSGDCMGWFRRAPGKERDEGVATIDNAGRIKYADSVKGRFTISHGNGKYILYLQMNSLKPEDTDMYYCAAGWTFGGNCSPADWGQGTQVTVSS
notes: no light chain
Consider B2, for which, in assay [1], the Kd was determined as 0.723 nM, the dissociation rate constant (koff) was determined as 0.000205 s⁻¹ and the kon is 284000 M⁻¹ s⁻¹. In assay [2], the “PVRIG reporter gene cell activity EC50” value turned out to be 0.06 nM.

B3: humanized anti-PVRIG/TIGIT bispecific antibody 1708-20H5 (bispecific antibody, human IgG4 S228P, kappa)
heavy: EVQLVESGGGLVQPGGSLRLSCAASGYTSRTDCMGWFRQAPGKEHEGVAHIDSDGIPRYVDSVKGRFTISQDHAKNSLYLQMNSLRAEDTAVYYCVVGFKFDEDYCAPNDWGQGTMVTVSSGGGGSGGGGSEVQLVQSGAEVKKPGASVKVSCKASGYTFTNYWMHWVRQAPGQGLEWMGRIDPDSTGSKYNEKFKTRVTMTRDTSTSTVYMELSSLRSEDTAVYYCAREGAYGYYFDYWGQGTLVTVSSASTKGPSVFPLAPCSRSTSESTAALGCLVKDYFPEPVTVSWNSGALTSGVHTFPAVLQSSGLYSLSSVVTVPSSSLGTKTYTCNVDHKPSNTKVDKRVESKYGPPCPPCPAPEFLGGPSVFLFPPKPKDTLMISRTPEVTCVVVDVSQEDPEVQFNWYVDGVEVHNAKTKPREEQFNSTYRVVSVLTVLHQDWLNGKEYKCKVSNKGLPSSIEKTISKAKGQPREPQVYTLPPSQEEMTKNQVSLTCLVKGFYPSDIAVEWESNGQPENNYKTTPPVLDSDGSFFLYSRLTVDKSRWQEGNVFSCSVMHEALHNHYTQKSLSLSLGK
light: DIQMTQSPSSLSASVGDRVTITCRASENIYSYLAWYQQKPGKSPKLLIYNARTLAEGVPSRFSGSGSGTDFTLTISSLQPEDFATYYCQYHSGSPLPFGGGTKVEIKRTVAAPSVFIFPPSDEQLKSGTASVVCLLNNFYPREAKVQWKVDNALQSGNSQESVTEQDSKDSTYSLSSTLTLSKADYEKHKVYACEVTHQGLSSPVTKSFNRGEC
On to B3, for which the EC50 in assay [3] amounted to 0.009 nM; in assay [4], 0.01 nM; in assay [5], 0.144 nM; in assay [6], 2.47 nM.

B4: humanized anti-PVRIG/TIGIT bispecific antibody 1708-30H2 (bispecific antibody, human IgG4 S228P, kappa)
heavy: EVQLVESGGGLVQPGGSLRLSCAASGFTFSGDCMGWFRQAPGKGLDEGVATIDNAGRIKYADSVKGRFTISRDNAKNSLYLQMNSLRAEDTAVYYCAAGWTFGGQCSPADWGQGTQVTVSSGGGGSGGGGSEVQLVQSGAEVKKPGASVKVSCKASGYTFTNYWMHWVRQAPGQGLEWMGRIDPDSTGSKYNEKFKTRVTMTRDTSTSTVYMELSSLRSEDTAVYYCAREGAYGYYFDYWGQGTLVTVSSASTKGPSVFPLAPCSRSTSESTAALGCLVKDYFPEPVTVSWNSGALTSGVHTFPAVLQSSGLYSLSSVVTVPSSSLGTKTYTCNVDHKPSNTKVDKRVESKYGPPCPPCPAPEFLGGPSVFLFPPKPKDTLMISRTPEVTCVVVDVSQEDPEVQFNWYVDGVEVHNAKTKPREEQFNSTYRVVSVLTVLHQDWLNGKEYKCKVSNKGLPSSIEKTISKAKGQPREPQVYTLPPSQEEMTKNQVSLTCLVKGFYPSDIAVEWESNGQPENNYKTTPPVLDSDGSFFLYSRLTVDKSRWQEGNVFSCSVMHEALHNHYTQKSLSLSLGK
light: B3 light
On to B4, for which the EC50 in assay [3] is 0.009 nM; in assay [4], 0.01 nM; in assay [5] it was 0.184 nM; in assay [6], 0.32 nM.

B5: anti-PVRIG antibody 38 (antibody, human IgG4 S228P, F234A L235A, V domains shown)
VH: QVQLVESGGGSVQAGGSLRLSCAASPSTYGPSDMAWFRQAPGKQREGVATISAAGRLTYYTDSVRGRFTISRDNAKNTMYLQMNSLKPEDTAMYYCAADFAGGSSLFADYKYWGQGTQVTVSS
notes: no light chain
Regarding B5, in assay [1], the Kd came out at 2.17 nM, the koff amounted to 0.000287 s⁻¹ and the association rate constant (kon) is 132000 M⁻¹ s⁻¹. In addition, the “PVRIG reporter gene cell activity EC50” value in assay [2] is 0.2 nM.

B6: anti-PVRIG antibody 39 (antibody, human IgG4 S228P, F234A L235A, V domains shown)
VH: QVQLVESGGGSVQAGGSLRLSCAASRYTSRTDCMGWFRQAPGKEREGVAHIDSDGIPRYVESVKGRFTISQDHAKNTLYLQMNSLKPEDSATYYCVVGFKFGDYCAPNDWGQGTQVTVSS
notes: no light chain
With B6, in assay [1], the dissociation constant Kd was 0.696 nM, the koff came to 0.000169 s⁻¹ and the kon is 242000 M⁻¹ s⁻¹. For the same molecule, in assay [2], the “PVRIG reporter gene cell activity EC50” value was 0.06 nM.

B7: positive antibody Tab5 (antibody, human IgG4 S228P, kappa, F234A L235A, V domains shown)
VH: EVQLVESGGGVVKPGGSLRLSCAASGFTFGTSSMNWVRQAPGKGLEWVAVISFDGTEIHYADSVKGRFTISRDNSKSTVFLQMNSLRPDDTALYYCAKGSGNIYFYSGMDVWGQGTTVTVSS
VL: DIQMTQSPSTLSASVGDRVTITCRAGQSISGWLAWFQQKPGKAPNLLIYETSTLESGVPSRFSGSGSGTEYTLTISSLQPDDFATYYCQQYYSYPLTFGQGTKVEIKR
notes: Variable regions of CPA.7.021 (WO2016134333A1) on human IgG4 (S228P/F234A/L235A/K447A) and human kappa constant regions
With B7, the binding result in assay [3], in assay [4] and in assay [5] was “no binding” in each case. Further, the Kd in assay [1] turned out to be 0.219 nM. Moreover, the EC50 in assay [6] was found to be 1.41 nM. In assay [2], the “PVRIG reporter gene cell activity EC50” value was 0.74 nM.
